# T1: Benzonase (粘质沙雷氏菌 (Serratia marcescens), UniProt P13717 22-266)
# T1 construct: Coated on the plate in the ELISA and used as the sample in the sandwich ELISA; also called 全能核酸酶; Benzonase蛋白
# T1 sequence (looked up): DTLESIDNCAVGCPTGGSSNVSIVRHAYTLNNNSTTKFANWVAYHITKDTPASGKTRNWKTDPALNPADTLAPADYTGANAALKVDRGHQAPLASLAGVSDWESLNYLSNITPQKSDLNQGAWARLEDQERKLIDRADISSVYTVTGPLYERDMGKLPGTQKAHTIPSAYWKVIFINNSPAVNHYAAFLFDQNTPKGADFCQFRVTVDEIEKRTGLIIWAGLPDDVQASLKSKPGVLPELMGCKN
# What was measured:
# Benzonase [1] = target: T1, Benzonase; experiment: sandwich ELISA, biotin-scFv4 as detection on Benzonase captured by scFv3, HRP-streptavidin
# 牛血清白蛋白 = target: T2, 牛血清白蛋白 (牛 (bovine, by its name), UniProt P02769 25-607); experiment: ELISA, BSA coated and blocked as control, HRP anti-flag-tag detection
# T2 construct: also called BSA
# Benzonase [2] = target: T1, Benzonase; experiment: ELISA, Benzonase coated, scFv from 1 μg/ml in twofold dilutions, HRP anti-flag-tag detection
# T2 sequence (P02769 25-607 limits assumed): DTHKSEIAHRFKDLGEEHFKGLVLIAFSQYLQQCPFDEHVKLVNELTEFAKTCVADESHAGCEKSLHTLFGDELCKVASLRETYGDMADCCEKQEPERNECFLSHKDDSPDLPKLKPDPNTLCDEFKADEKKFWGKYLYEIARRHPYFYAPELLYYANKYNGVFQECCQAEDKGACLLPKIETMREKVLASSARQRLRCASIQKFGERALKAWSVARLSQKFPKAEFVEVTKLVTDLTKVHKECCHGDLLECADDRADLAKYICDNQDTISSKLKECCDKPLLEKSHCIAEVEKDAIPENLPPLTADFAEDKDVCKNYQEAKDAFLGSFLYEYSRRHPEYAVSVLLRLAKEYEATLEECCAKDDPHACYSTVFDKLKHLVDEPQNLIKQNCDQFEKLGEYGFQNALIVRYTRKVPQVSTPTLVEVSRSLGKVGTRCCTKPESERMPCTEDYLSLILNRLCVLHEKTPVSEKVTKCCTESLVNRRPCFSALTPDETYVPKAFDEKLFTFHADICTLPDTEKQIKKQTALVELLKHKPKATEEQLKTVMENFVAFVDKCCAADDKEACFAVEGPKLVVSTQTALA
Binder,binding result (Benzonase [1]),binding result (牛血清白蛋白),binding result (Benzonase [2])
Benzonase单克隆抗体scFv4 (scFv) scFv: QLMESGGGLVQPGASLTLTCTASGFSFSSNYWICWVRQAPGKGLEWIGCIYTGTSGTTYYASWAKGRFTISETSSTTVTLQMTSLTAADTATYFCSKNTYGYALAARLDLWGQGTLVTISSGGGGSGGGGSGGGGSDMTQTPASVEVAVGGTVTIKCQASQSIGSDLAWYQQKLGQPPKLLIYYASTLESGAPARFSGSGSGTEYTLTITDVQCDDAATYYCAGDYSSGNDNGFGGGTEVVVKA,binds,no binding (tested: 1μg/ml后二倍梯度稀释),–
Benzonase单克隆抗体scFv3 (scFv) scFv: QLVESGGRLVTPGTPLTLTCTASGFALSGYYMTWVRQAPGKGLEWIGITHPSGSTYYASWVKGRFTISKASTTVDLRITSPTTEDTATYFCARVWTHYSSGGGDLWGPGTLVTISSGGGGSGGGGSGGGGSDLTQTPSSVSAAVGGTVTINCQSSESVYKNNDLSWYQQKPGQPPKLLISAASTLASGVPSRFKGSGSGTQFTLTISGVQCDDAATYYCQQGYSGDNVVNTFGGGTEVVVK,–,no binding (tested: 1μg/ml后二倍梯度稀释),binds
Benzonase单克隆抗体scFv5 (scFv) scFv: QLMESGGGLVTPGGTLTLTCTASGFSLSNYWMSWVRQAPGKGLEWIGIISNYGSTYYASWAKGRFTISKTSTTVDLRITSPTIEDTATYFCAREFAGVFNLWGPGTLVTVSSGGGGSGGGGSGGGGSDMTQTPASVSEPVGGTVTINCQASQSVYNNKNLAWYQQKPGQPPKVLIYKASTLASGVSSRFKGSGSGTEFTLTISDLECADAATYYCQQGHDTNVQNLFGGGTEVVVKAAAGA,–,no binding (tested: 1μg/ml后二倍梯度稀释),binds
Benzonase单克隆抗体scFv1 (scFv) scFv: QLVESGGGLVTPGTPLTLTCTASGFSLSSYWMSWVRQAPGKGLEWIGVISSSGSTDYASWAKGRFTISKTSTTVDLKITSLTTEDTAIYFCARYSSDWNAYDLWGQGTLVTISSGGGGSGGGGSGGGGSVLTQTPSPVSAAVGGTVTISCQASQSVYGNNYLSWFQQKPGQPPKLLIYQASTLASGVPSRFSGSGSGTQFSLTISGVQCDDAATYYCAGWSGSGTDAVAFGGGTELEILGRSGP,–,no binding (tested: 1μg/ml后二倍梯度稀释),binds
Benzonase单克隆抗体scFv6 (scFv) scFv: QLVESGGDLVKPGASLTLTCTASGFTLSSYWMCWVRQAPGKGLEWIGCIDTGSSDSTYYANWAKGRFTISKASSTTVTLQMTSVTPADTATYFCARHLRYSTNNNDWDLWGPGTLVTVSSGGGGSGGGGSGGGGSDLTQTPASVEAAVGDTVTIKCQASQSIYNYLAWYQQKPGQPPKVLIYAASNLASGVPSRFSGSGSGTQFTLTISGVQCDDAATYYCAGAYSTYGDNGFGGGTEVVVKA,–,no binding (tested: 1μg/ml后二倍梯度稀释),binds
